# Data published in patent US20220112249A1 (OXFORD UNIVERSITY INNOVATION, published 2022).
# T1: fHbp V1.1 with PorA VR2 P1.16 loop in position 5 (P5) (Neisseria meningitidis, UniProt E6MV22 20-274)
# T1 sequence: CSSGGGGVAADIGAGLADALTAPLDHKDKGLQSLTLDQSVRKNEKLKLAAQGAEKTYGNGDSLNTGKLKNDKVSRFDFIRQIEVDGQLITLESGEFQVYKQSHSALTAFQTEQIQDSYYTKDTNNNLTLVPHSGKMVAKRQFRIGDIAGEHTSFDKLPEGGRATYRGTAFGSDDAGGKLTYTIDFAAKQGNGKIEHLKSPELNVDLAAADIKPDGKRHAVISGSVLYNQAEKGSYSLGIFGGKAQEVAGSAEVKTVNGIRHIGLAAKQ
# Molecular target: T1, fHbp V1.1 with PorA VR2 P1.16 loop in …
# Assay: SPR (BIAcore), fHbp:PorA coupled to the chip, CFH (fH67) flowed over
binder,measurement,value
"Complement Factor H (CFH) domains 6 and 7 (other, domain: fH67 (CFH domains 6-7); also called fH67) TLKPCDYPDIKHGGLYHENMRRPYFPVAVGKYYSYYCDEHFETPSGSYWDHIHCTQDGWSPAVPCLRKCYFPYLENGYNQNYGRKFVQGKSIDVACHPGYALPKAQTTVTCMENGWSPTPRCI",binding result,no binding (tested: 0.5-32 nM)
